{"source": "patent US20040001835A1", "about": "“Prevention or treatment of cancer using integrin alphavbeta3 antagonists in combination with other agents” (MedImmune, Inc., priority 2002, published 2004)", "key": {"[1]": {"molecular_target": "T1, human β3 (αvβ3 on HEK293 cells) (Homo sapiens, UniProt P05106)", "T1 construct": "expressed in transfected cells; host or cells: HEK293", "T1 sequence (P05106 27-788)": "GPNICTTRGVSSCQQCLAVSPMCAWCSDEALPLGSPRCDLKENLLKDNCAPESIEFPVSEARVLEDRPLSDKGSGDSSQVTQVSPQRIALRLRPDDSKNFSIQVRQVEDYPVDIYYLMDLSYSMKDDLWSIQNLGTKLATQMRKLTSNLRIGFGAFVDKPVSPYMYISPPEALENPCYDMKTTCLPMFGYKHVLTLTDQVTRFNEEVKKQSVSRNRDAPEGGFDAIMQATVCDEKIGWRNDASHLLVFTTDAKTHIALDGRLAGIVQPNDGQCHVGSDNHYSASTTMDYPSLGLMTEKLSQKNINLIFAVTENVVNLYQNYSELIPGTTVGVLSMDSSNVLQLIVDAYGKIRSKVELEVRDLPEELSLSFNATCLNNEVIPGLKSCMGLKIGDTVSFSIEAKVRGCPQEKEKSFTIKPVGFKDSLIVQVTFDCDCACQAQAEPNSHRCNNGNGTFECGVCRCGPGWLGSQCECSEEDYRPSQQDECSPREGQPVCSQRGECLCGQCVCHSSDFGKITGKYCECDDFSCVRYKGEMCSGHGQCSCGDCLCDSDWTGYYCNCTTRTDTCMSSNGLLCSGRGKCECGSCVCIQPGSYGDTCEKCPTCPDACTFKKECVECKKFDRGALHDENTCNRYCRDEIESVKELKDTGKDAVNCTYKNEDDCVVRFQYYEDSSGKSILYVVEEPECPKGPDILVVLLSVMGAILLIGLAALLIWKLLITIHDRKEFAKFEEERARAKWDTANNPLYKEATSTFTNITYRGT", "T1 sequence (P06756 31-889 partner limits assumed)": "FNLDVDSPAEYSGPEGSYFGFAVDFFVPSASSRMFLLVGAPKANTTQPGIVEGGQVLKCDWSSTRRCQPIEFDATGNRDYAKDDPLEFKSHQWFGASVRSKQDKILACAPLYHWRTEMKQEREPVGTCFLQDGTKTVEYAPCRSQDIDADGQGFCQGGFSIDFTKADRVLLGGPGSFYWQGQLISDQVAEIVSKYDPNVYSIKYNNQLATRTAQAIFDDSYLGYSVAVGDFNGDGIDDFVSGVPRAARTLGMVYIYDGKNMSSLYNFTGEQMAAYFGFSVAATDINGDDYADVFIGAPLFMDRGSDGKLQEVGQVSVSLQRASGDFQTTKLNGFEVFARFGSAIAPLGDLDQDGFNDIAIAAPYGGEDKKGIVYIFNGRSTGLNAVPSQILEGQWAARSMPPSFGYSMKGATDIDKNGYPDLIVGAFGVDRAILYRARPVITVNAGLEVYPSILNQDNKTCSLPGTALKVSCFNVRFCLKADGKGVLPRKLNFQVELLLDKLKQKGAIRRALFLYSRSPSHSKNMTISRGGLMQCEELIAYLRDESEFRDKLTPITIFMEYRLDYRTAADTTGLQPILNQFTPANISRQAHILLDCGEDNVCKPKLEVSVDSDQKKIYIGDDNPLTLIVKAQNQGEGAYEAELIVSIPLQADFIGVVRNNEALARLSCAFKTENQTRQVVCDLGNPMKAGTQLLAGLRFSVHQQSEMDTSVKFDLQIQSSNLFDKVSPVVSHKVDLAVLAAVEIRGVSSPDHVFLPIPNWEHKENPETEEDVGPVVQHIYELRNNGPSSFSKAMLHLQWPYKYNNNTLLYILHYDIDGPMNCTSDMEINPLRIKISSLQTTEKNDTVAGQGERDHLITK", "T1 sequence (P06756 891-1048 partner limits assumed)": "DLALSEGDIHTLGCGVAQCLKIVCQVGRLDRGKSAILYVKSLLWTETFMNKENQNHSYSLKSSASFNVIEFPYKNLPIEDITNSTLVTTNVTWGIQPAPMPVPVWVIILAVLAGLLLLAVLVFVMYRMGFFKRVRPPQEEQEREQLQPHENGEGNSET", "assay": "FACS analysis of HEK293 cells transfected with human β3 cDNA", "type": "binding", "conditions": "wild type human β3, flow cytometry, FIG. 4", "description": "(§1) FIG. 4. Binding of Integrin αvβ3 specific antibodies to human β3 containing rat residues.\n(§2) Sequence comparison of residues 164 to 202 of β3 integrins from different species and design of mutations. To further characterize the binding epitope of Vitaxin®, the gene encoding β3 was cloned and sequenced from hamster cDNA. The amino acids in the region previously proposed to contain the LM609 binding epitope are shown above (dashed lines depict conserved residues). To determine which residues in the human sequence were essential for antibody binding, the amino acids shown in color were mutated to the corresponding rat residues. The resulting genes were transfected to HEK293 cells which express endogenous human αv. Resulting cell lines were analyzed by flow cytometry for antibody binding.\n(§3) This protocol is used to assess the surface expression of integrins in HEK-293 cells transfected with various Integrin subunits. Primary antibodies bound to the integrins are detected by fluorochrome-conjugated secondary antibodies and analyzed by flow cytometry.\n(§4) 1. Wash adherent cells twice with 5 ml of PBS.\n(§5) 2. Add 1.5 ml of trypsin solution or cell dissociation solution, incubate at 37_C. foir 2 min.\n(§6) 3. Add 3 ml of culture medium or FACs buffer to the plate and loosen cells from the plate by pipetting. Count cells. Resuspend cells in FACs buffer at 5×10^6 per ml.\n4. […]"}, "Rabbit αvβ3": {"tested_on": "Rabbit αvβ3", "assay": "Flow cytometric analysis of antibody binding to cell lines", "method": "(§7) FIG. 2. Flow cytometric analysis of antibody binding to tumor cell lines. […] Rat αvβ3 was not recognized by any of the three antibodies but was detected by the anti-rat αvβ3 control antibody.\n(§8) Cells (5×10^5) were incubated with 0.5 μg of antibody and bound antibody was detected with a phycoerythrin-labeled secondary antibody. Mean channel fluorescence results are expressed as fold increase over an isotype matched control antibody. The mouse anti-rat β3 antibody F11 was included for as a positive control for the rat cell line RG2. HMVEC, human microvascular endothelial cells; ND, not done."}, "hamster αvβ3 [2]": {"tested_on": "hamster αvβ3", "assay": "Flow cytometric analysis of antibody binding to cell lines", "method": "as §7, §8"}, "human αvβ3": {"molecular_target": "T2, human αvβ3 (Homo sapiens, UniProt P05106)", "T2 construct": "endogenous in cells; host or cells: M21 melanoma, HMVEC, HUVEC", "T2 sequence (P05106 27-788)": "as the sequence (P05106 27-788) above", "T2 sequence (P06756 31-889 partner limits assumed)": "as the sequence (P06756 31-889 partner limits assumed) above", "T2 sequence (P06756 891-1048 partner limits assumed)": "as the sequence (P06756 891-1048 partner limits assumed) above", "assay": "Flow cytometric analysis of antibody binding to cell lines", "conditions": "for Fold Increase Over Control (mean channel fluorescence): 5×10^5 cells, 0.5 μg antibody, vs isotype matched control antibody", "method": "as §7, §8"}, "Rat αvβ3": {"molecular_target": "T3, Rat αvβ3 (Rattus norvegicus, UniProt Q8R2H2)", "T3 construct": "endogenous in cells; host or cells: RG2 glioma", "T3 sequence (Q8R2H2 26-787)": "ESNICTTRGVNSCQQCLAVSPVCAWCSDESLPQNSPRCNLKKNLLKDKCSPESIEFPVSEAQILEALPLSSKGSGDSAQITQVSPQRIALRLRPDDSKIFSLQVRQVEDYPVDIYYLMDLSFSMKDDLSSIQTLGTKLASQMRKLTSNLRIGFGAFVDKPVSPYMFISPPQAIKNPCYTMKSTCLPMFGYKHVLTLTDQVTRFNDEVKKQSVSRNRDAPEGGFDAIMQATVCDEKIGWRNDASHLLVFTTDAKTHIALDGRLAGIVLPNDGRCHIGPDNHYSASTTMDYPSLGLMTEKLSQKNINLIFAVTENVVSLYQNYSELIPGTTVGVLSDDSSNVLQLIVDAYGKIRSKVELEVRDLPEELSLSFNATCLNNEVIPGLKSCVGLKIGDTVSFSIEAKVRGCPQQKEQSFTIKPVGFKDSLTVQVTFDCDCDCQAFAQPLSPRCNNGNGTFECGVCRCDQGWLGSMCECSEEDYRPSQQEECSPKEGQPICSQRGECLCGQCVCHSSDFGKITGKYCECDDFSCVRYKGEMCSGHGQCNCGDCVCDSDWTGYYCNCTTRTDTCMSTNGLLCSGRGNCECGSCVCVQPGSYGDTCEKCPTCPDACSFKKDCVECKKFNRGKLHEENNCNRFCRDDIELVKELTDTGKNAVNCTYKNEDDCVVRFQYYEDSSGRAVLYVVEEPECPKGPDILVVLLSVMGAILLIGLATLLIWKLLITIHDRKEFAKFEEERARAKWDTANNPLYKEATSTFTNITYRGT", "assay": "Flow cytometric analysis of antibody binding to cell lines", "conditions": "Rat RG2 glioma; 5×10^5 cells, 0.5 μg antibody; vs isotype matched control antibody", "method": "as §7, §8"}, "hamster αvβ3 [3]": {"tested_on": "hamster αvβ3", "assay": "125-labeled Vitaxin binding affinities and number of binding sites on cell lines", "description": "^125-labeled Vitaxin® was used to determine binding affinities and number of binding sites for human, rabbit and hamster cell lines. The affinity of Vitaxin® for hamster αvβ3 was approximately 2-3 fold lower than human αvβ3 while its affinity for rabbit αvβ3 was about 4-10 fold lower than human αvβ3."}, "[4]": {"molecular_target": "T4, human β3 Mutant ABC (E171Q L173I E174K D179T T182S) (Homo sapiens, UniProt P05106, D205T/E197Q/E200K/L199I/T208S)", "T4 construct": "expressed in transfected cells; host or cells: HEK293", "T4 sequence (P05106 27-788 E197Q/L199I/E200K/D205T/T208S)": "as the sequence (P05106 27-788) above, with E171Q, L173I, E174K, D179T, T182S counted along it", "T4 sequence (P06756 31-889 partner limits assumed)": "as the sequence (P06756 31-889 partner limits assumed) above", "T4 sequence (P06756 891-1048 partner limits assumed)": "as the sequence (P06756 891-1048 partner limits assumed) above", "assay": "FACS analysis of HEK293 transfectants, human β3 containing rat residues", "type": "binding", "conditions": "flow cytometry", "description": "as §1, §2, §3, §4, §5, §6\n(§9) 4. Transfer an aliquot of 5×10^5 cells (100 μl) into microfuge tubes containing 10 μg mouse IgG or human IgG. Incubate cells for 20 min at RT to block IgG receptor sites. Note: use mouse IgG for blocking when using human primary mAb; use human IgG for blocking when using mouse primary mAb.\n(§10) 5. Add […] of Vitaxin®, or other primary mAb, and incubate for 20 min at RT.\n(§11) 6. Wash twice with 500 μl of FACS buffer, spinning cells at 1500 rpm for 5 minutes.\n(§12) 7. Add 0.5 mg of goat anti-human IgG Alexa 488, or other secondary antibodies, and incubate for 20 min at RT.\n(§13) 8. Wash twice with 500 μl FACS buffer, spinning cells at 1500 rpm for 5 minutes.\n(§14) 9. Resuspend in 500 μl buffer for FACS analysis.\n(§15) 10. Use unstained cells for background. For negative control, use secondary antibody alone."}, "[5]": {"molecular_target": "T5, human β3 Mutant A + C (E171Q D179T T182S) (Homo sapiens, UniProt P05106, D205T/E197Q/T208S)", "T5 construct": "expressed in transfected cells; host or cells: HEK293", "T5 sequence (P05106 27-788 E197Q/D205T/T208S)": "as the sequence (P05106 27-788) above, with E171Q, D179T, T182S counted along it", "T5 sequence (P06756 31-889 partner limits assumed)": "as the sequence (P06756 31-889 partner limits assumed) above", "T5 sequence (P06756 891-1048 partner limits assumed)": "as the sequence (P06756 891-1048 partner limits assumed) above", "assay": "FACS analysis of HEK293 transfectants, human β3 containing rat residues", "type": "binding", "conditions": "flow cytometry", "description": "as §1, §2, §3, §4, §5, §6, §9, §10, §11, §12, §13, §14, §15"}, "[6]": {"molecular_target": "T6, human β3 Mutant A (E171Q) (Homo sapiens, UniProt P05106, E197Q)", "T6 construct": "expressed in transfected cells; host or cells: HEK293", "T6 sequence (P05106 27-788 E197Q)": "as the sequence (P05106 27-788) above, with E171Q counted along it", "T6 sequence (P06756 31-889 partner limits assumed)": "as the sequence (P06756 31-889 partner limits assumed) above", "T6 sequence (P06756 891-1048 partner limits assumed)": "as the sequence (P06756 891-1048 partner limits assumed) above", "assay": "FACS analysis of HEK293 transfectants, human β3 containing rat residues", "type": "binding", "conditions": "flow cytometry", "description": "as §1, §2, §3, §4, §5, §6, §9, §10, §11, §12, §13, §14, §15"}, "[7]": {"molecular_target": "T7, human β3 Mutant B (L173I E174K) (Homo sapiens, UniProt P05106, E200K/L199I)", "T7 construct": "expressed in transfected cells; host or cells: HEK293", "T7 sequence (P05106 27-788 L199I/E200K)": "as the sequence (P05106 27-788) above, with L173I, E174K counted along it", "T7 sequence (P06756 31-889 partner limits assumed)": "as the sequence (P06756 31-889 partner limits assumed) above", "T7 sequence (P06756 891-1048 partner limits assumed)": "as the sequence (P06756 891-1048 partner limits assumed) above", "assay": "FACS analysis of HEK293 transfectants, human β3 containing rat residues", "type": "binding", "conditions": "flow cytometry", "description": "as §1, §2, §3, §4, §5, §6, §9, §10, §11, §12, §13, §14, §15"}, "[8]": {"conditions": "flow cytometry, tumor cell lines, FIG. 2"}}, "note": "“Also recorded” adds a separate entry of the source.", "data": [{"molecule": "Vitaxin®: humanized blocking monoclonal antibody that binds Integrin αVβ3 (MEDI-522, MedImmune); humanized and optimized version of LM609 (antibody, chains of the INN, looked up, V domains shown) VH: QVQLVESGGGVVQPGRSLRLSCAASGFTFSSYDMSWVRQAPGKGLEWVAKVSSGGGSTYYLDTVQGRFTISRDNSKNTLYLQMNSLRAEDTAVYYCARHLHGSFASWGQGTTVTVSS VL: EIVLTQSPATLSLSPGERATLSCQASQSISNFLHWYQQRPGQAPRLLIRYRSQSISGIPARFSGSGSGTDFTLTISSLEPEDFAVYYCQQSGSWPLTFGGGTKVEIK", "values": [{"measurement": "binding to HEK293 cells transfected with human β3 cDNA", "setting": "[1]", "result": "detectable"}, {"measurement": "Fold Increase Over Control (mean channel fluorescence)", "setting": "Rabbit αvβ3; Rabbit VX7 carcinoma, 5×10^5 cells, 0.5 μg antibody, vs isotype matched control antibody", "result": 17, "unit": "fold"}, {"measurement": "binding to rabbit αvβ3 (in words)", "setting": "Rabbit αvβ3; [8]", "result": "recognized"}, {"measurement": "Fold Increase Over Control (mean channel fluorescence)", "setting": "hamster αvβ3 [2]; Hamster CCL-49 melanoma, 5×10^5 cells, 0.5 μg antibody, vs isotype matched control antibody", "result": 12, "unit": "fold"}, {"measurement": "binding to hamster αvβ3 (in words)", "setting": "hamster αvβ3 [2]; [8]", "result": "recognized; also recorded: capable of binding"}, {"measurement": "Fold Increase Over Control (mean channel fluorescence)", "setting": "human αvβ3; Human HMVEC endothelial", "result": 8.9, "unit": "fold"}, {"measurement": "Fold Increase Over Control (mean channel fluorescence)", "setting": "human αvβ3; Human M21 melanoma", "result": 73, "unit": "fold"}, {"measurement": "binding to human αvβ3 (in words)", "setting": "human αvβ3; [8]", "result": "recognized; also recorded: capable of binding"}, {"measurement": "Fold Increase Over Control (mean channel fluorescence)", "setting": "Rat αvβ3", "result": 0.95, "unit": "fold"}, {"measurement": "Kd", "setting": "hamster αvβ3 [3]; Hamster CCL-49 melanoma, read-out: Kp", "result": 6.9, "unit": "nM"}, {"measurement": "affinity for hamster αvβ3, fold lower than human αvβ3", "setting": "hamster αvβ3 [3]; hamster vs human cell lines", "result": "2-3 fold"}, {"measurement": "effect of changing all three regions (A, B and C) to rat residues on antibody binding", "setting": "[4]", "result": "disrupt binding; also recorded: completely eliminate binding"}, {"measurement": "effect of Mutations A and C combined on antibody binding", "setting": "[5]", "result": "disrupts binding; also recorded: eliminated binding"}, {"measurement": "effect of Mutation A (Glu to Gln at position 171) on antibody binding", "setting": "[6]", "result": "disrupts binding"}, {"measurement": "effect of Mutation B (Leu, Glu to Ile, Lys at positions 173 and 174) on antibody binding", "setting": "[7]", "result": "disrupt binding"}]}]}
